B1: UGDH (uridine diphosphate glucose dehydrogenase): S350A (protein)
parent chain: MFEIKKICCIGAGYVGGPTCSVIAHMCPEIRVTVVDVNESRINAWNSPTLPIYEPGLKEVVESCRGKNLFFSTNIDDAIKEADLVFISVNTPTKTYGMGKGRAADLKYIEACARRIVQNSNGYKIVTEKSTVPVRAAESIRRIFDANTKPNLNLQVLSNPEFLAEGTAIKDLKNPDRVLIGGDETPEGQRAVQALCAVYEHWVPREKILTTNTWSSELSKLAANAFLAQRISSINSISALCEATGADVEEVATAIGMDQRIGNKFLKASVGFGGSCFQKDVLNLVYLCEALNLPEVARYWQQVIDMNDYQRRRFASRIIDSLFNTVTDKKIAILGFAFKKDTGDTRESSSIYISKYLMDEGAHLHIYDPKVPREQIVVDLSHPGVSEDDQVSRLVTISKDPYEACDGAHAVVICTEWDMFKELDYERIHKKMLKPAFIFDGRRVLDGLHNELQTIGFQIETIGKKVSSKRIPYAPSGEIPKFSLQDPPNKKPKV
B2: UGDH (uridine diphosphate glucose dehydrogenase): OGT co-expression (protein)
parent chain: B1 parent chain
B3: UGDH (uridine diphosphate glucose dehydrogenase): TMG (50 μM) (protein)
parent chain: B1 parent chain

Key:
[1] = Flag-KPNA2 pull-down, HEK293T, IFNγ; conditions: glycan lost; control: cells expressing UGDH WT
[2] = NADH OD340 assay, Flag-purified protein; conditions: glycan lost; control: WT UGDH from HEK293T
[3] = steady-state kinetics, Michaelis-Menten fit; conditions: glycan lost; control: WT UGDH from HEK293T
[4] = HABP immunofluorescence and competitive ELISA; conditions: glycan lost; control: UGDH-KO A549 rescued with WT UGDH
[5] = NADH OD340 assay, Flag-purified from HEK293T; conditions: glycan gained; control: WT UGDH, no OGT co-expression or TMG

| Protein | other: KPNA2-STAT1 association in cells [1] | enzymatic_activity [2] | enzymatic_activity, kcat_Km [3] | other: cellular hyaluronic acid level [4] | enzymatic_activity [5] |
| --- | --- | --- | --- | --- | --- |
| B1 | increases | decreases | decreases, 0.576 vs 5.07, Km value of 37.7 μM for the S350A, which was 3-fold higher than that of the WT with a Km value of 11.4 μM | decreases | – |
| B2 | – | – | – | – | increases |
| B3 | – | – | – | – | increases |
